Results reported in article doi:10.1101/2022.12.06.519383.

Molecular target: ZIKV sE (strain PF13) (Zika virus, strain PF13)
Test: SEC-MALS

## ZIKV sE (strain PF13) (domain or fragment)
  stoichiometry N: 2
